According to US20220135638A1 (Takeda / Millennium, published 2022):
Numbered stars: 1 amine (or outer) side, 2 acyl side, 3 side chain; on linkers, the order of the positions; unused ones are H or OH. Square brackets hold non-standard residues; d marks the D form. Primed or numbered codes have the meaning given here. Side chains are listed from the residue outwards. Ends that are not written are not given here. * marks the point of attachment. C20 diacid = O=C(O)CCCCCCCCCCCCCCCCCCC(=O)*; C18 diacid = O=C(O)CCCCCCCCCCCCCCCCC(=O)*; C16 diacid = O=C(O)CCCCCCCCCCCCCCC(=O)*; γGlu = O=C(O)[C@H](CCC(=O)[*:2])N[*:1]; Iva = CC[C@](C)(N)C(=O)O; PEG3′ = not defined here; AGlu = not defined here; Aib = CC(C)(N)C(=O)O

Tests used:
Test in all cases: cell-based or functional assay
[1] = molecular target: T1, human GIPR (Genebank Accession No. U39231) on hGIPR/CRE-LUC/CHO-K1 cells (human), P48546
T1 chain: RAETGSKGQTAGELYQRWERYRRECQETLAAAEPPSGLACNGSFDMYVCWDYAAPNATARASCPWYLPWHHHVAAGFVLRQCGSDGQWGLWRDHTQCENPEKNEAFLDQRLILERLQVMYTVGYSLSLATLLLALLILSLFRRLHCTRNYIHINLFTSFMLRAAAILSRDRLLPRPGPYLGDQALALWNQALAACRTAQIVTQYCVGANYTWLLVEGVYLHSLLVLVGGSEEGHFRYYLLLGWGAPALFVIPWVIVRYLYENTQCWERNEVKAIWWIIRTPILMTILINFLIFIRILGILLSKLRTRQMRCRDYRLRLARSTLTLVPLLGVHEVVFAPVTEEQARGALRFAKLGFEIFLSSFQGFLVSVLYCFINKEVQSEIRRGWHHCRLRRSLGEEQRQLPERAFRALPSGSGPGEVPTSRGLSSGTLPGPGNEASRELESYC

[2] = molecular target: T2, human GLP-1R (Genebank Accession No. NM_002062) on hGLP-1R/CRE-luc/CHO-K1 cells (human), P43220
T2 chain: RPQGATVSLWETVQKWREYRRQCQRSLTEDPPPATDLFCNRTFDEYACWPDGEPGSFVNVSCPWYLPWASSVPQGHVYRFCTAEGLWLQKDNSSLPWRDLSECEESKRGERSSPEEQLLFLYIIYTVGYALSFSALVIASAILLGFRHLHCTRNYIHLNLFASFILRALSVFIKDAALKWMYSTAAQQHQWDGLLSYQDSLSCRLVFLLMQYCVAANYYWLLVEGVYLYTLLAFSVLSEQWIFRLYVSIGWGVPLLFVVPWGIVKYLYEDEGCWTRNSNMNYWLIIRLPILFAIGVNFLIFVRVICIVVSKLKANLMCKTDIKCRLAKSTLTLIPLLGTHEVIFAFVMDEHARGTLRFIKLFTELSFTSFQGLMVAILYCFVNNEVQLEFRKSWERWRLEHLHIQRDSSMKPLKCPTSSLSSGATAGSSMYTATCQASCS

[3] = molecular target: T3, full-length human GIPR (GenBank NM_000164) with an N-terminal FLAG tag on HEK-293T cells (human), P48546
T3 chain: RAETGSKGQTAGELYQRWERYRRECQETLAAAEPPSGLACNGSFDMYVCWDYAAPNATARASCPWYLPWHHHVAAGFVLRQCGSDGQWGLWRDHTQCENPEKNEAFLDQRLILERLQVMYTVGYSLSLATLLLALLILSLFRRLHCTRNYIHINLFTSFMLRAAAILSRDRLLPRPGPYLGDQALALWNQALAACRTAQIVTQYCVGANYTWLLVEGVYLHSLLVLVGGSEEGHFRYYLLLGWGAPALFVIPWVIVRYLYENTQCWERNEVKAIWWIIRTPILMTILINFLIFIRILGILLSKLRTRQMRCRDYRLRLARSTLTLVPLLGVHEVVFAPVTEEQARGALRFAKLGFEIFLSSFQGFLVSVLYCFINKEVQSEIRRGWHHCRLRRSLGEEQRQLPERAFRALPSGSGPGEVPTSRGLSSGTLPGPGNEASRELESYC

[4] = molecular target: T4, full-length human GLP-1R (GenBank NM_002062) with an N-terminal FLAG tag on HEK-293T cells (human), P43220
T4 chain: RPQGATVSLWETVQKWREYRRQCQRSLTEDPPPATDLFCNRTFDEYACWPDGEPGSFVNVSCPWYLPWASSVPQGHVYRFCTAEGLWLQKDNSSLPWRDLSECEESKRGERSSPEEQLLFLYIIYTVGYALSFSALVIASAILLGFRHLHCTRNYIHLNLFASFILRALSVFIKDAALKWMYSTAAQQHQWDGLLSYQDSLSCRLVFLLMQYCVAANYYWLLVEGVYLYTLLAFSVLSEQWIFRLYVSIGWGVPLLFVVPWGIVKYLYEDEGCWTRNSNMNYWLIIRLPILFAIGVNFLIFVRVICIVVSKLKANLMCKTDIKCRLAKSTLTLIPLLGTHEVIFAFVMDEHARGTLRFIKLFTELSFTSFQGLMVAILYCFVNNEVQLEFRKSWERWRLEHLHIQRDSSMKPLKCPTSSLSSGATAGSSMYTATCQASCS

[5] = molecular target: human GLP-1R (Genebank Accession No. NM_002062) on hGLP-1R/CRE-luc/CHO-K1 cells (human, UniProt P43220 24-463)

Y[Aib]EGTVVSLYSI[Aib]LDKQAQ[Aib]EFVKWLLAQKK([PEG(2)-Pal]) (ends and bridges not checked) [Compound No. 20]
hGIPR (polyclonal) Reporter (EC50) [1]: 0.1 nM | hGLP-1R (Reporter gene assay)(EC50) [2]: > 1000 nM

Y[Aib]EGTFISDYSIALDR[Aib]HQ[Aib]NFVNW[Iva]LAQRPSSGAPPPSK([PEG3′-PEG3′-AGlu-C16 diacid]) (ends and bridges not checked) [Compound No. 21]
hGIPR (polyclonal) Reporter (EC50) [1]: 0.01 nM | hGLP-1R (Reporter gene assay)(EC50) [2]: > 1000 nM

Y[Aib]EGTFISDYSIALDR[Aib]HQ[Aib]NFVNW[Iva]LAQRPSSGAPPPSK([PEG3′-PEG3′-AGlu-C18 diacid]) (ends and bridges not checked) [Compound No. 22]
hGIPR (polyclonal) Reporter (EC50) [1]: 0.05 nM | hGLP-1R (Reporter gene assay)(EC50) [2]: > 1000 nM

Y[Aib]EGTFISDYSIALDR[Aib]HQ[Aib]NFVNW[Iva]LAQRPSSGAPPPSK([PEG3′-PEG3′-AGlu-C20 diacid]) (ends and bridges not checked) [Compound No. 23]
hGIPR (polyclonal) Reporter (EC50) [1]: 0.1 nM | hGLP-1R (Reporter gene assay)(EC50) [2]: > 1000 nM

Y[Aib]EGTFISDYSIALDR[Aib]HQ[Aib]NFVNW[Iva]LAQRGGGGSGGGGSK([PEG3′-PEG3′-γGlu-C18 diacid]) (ends and bridges not checked) [Compound No 943]
GIP EC50(pM) [3]: 1.5 pM | GLP EC50 [4]: 1.2 nM

Y[Aib]EGTFISDYSIALDR[Aib]HQ[Aib]NFVNW[Iva]LAQRPSSGAPPPSK([PEG(2)-C20 diacid]) (ends and bridges not checked) [Compound No. 38]
hGIPR (polyclonal) Reporter (EC50) [1]: 0.05 nM | hGLP-1R (Reporter gene assay)(EC50) [2]: > 1000 nM

Y[Aib]EGTFISDYSIALDR[Aib]HQ[Aib]NFVNW[Iva]LAQRPSSGAPPPSK([PEG(2)-C18 diacid]) (ends and bridges not checked) [Compound No. 42]
hGIPR (polyclonal) Reporter (EC50) [1]: 0.03 nM | hGLP-1R (Reporter gene assay)(EC50) [2]: > 1000 nM

Y[Aib]EGTFISDYSIALDR[Aib]HQ[Aib]NFVNW[Iva]LAQRPSSGAPPPSK([PEG(2)-C16 diacid]) (ends and bridges not checked) [Compound No. 46]
hGIPR (polyclonal) Reporter (EC50) [1]: 0.01 nM | hGLP-1R (Reporter gene assay)(EC50) [2]: > 1000 nM

B1: Compound No. 60 (peptide)
peptide: YXEGTFISDYSIALDRXHQXNFVNWXLAQRPSSGAPPPSX
modifications: MeTyr (N-methyltyrosine) at 1; Aib at 2, 17, 20; Iva at 26; Lys40(Oda-GlyGlyGlyGlyGly); synthesized on Sieber amide resin
hGLP-1R (Reporter gene assay)(EC50) [5]: > 1000 nM

B2: Compound No. 7 (peptide)
peptide: YXEGTVVSLYSIXLDKQAQXEFVKWLLKGGPSSGAPPPSX
modifications: Aib at 2, 13, 20; Lys40(Heda-Gly-Gly-Gly-Gly-); synthesized on Sieber amide resin
hGLP-1R (Reporter gene assay)(EC50) [5]: > 1000 nM
